*1 amine or outer side, *2 acyl side, *3 side chain or, on linkers, in order; H or OH if unused. Where a SMILES comes first, the peptide text is derived from it. Bridges are numbered along the chain shown (N, C = ends). Where no end group is shown, it is not given here. [ ]: non-standard residue; d: D form. The star is where a group is joined. DOTA = O=C(O)CN1CCN(CC(=O)O)CCN(CC(=O)*)CCN(CC(=O)O)CC1; 1Nal = N[C@@H](Cc1cccc2ccccc12)C(=O)O; TBMB = c1c(C[*:1])cc(C[*:3])cc1C[*:2]; hArg = N=C(N)NCCCC[C@H](N)C(=O)O; Tle = CC(C)(C)[C@H](N)C(=O)O; Aib = CC(C)(N)C(=O)O; βAla = NCCC(=O)O; Sar = CNCC(=O)O
Tests used:
xenograft tumor = experiment: μPET imaging with 68Ga-labelled Bicycle peptides in xenograft mice; format: in vivo; settings: 150 pmoles
Procedure: General method for μPET imaging: the mice were anaesthetized (2% sevoflurane, Abbott), placed into the small animal PET scanner (Inveon PET, Siemens) and injected with 68Ga-labeled Bicycle peptides. A 20 min transmission scan, a 50 min dynamic scan and a static scan from 100 to 120 min p.i. were performed. Images were reconstructed iteratively using the space alternating generalized expectation maximization method (SAGE, 16 subsets, 4 iterations) applying median root prior correction and were converted to standardized uptake value (SUV) images. Quantitation was done using a ROI (region of interest) technique and expressed as SUVmean.
General method for radiolabeling with Ga-68: ^68Ga (half-life 68 min; β^+ 89%; Eβ+max. 1.9 MeV) was obtained from a in house ^68Ge/^68Ga generator based on pyrogallol resin support. 1 GBq ^68Ga was eluted using 5.5 M HCl. The activity was trapped on a small anion-exchanger cartridge (AG1X8, Biorad, Richmond, CA, USA) as [^68Ga]GaCl4^−. The radiogallium was eluted from the cartridge in a final volume of 300 μL ultrapure water (Merck, Darmstadt, Germany) as [^68Ga]GaCl3.
1 nmol Bicycle peptide in 1 μL DMSO was added to a mixture of 50 μL 0.05 M HEPES, 0.1% Tween-20, and 80 μL [^68Ga]Ga^3+ eluate (˜200 MBq). The pH of the labelling solution was adjusted to 4.2 using 30% NaOH. The reaction mixture was incubated at 98° C. for 10 minutes. The radiochemical yield (RCY) was determined using reversed-phase high performance liquid chromatography (RP-HPLC; Chromolith RP-18e, 100×4.6 mm; Merck, Darmstadt, Germany). The analytical HPLC run was performed using a linear A-B gradient (0% B to 100% B in 6 min) at a flow rate of 4 mL/min. Solvent A consisted of 0.1% aqueous TFA and solvent B was 0.1% TFA in CH3CN.
For μPET imaging, the labelling reaction mixture was diluted in injection buffer (0.25 M Na-Acetate 0.05% Tween-20 pH 7) by a factor of 6 to obtain 150 pmoles in 100 μL injection buffer. The anaesthetized mouse (2% sevoflurane, Abbott) was injected with 100 μL of ^68Ga-labelled I-23 (˜25 MBq) and placed in a small animal PET scanner (Inveon PET, Siemens). The imaging was performed 60 min post-injection and included a 15 min transmission scan before injection and a 60 min emission scan post-injection. Scans from μPET imaging were reconstructed iteratively using the space alternating generalized expectation maximization method (SAGE, 16 subsets, 4 iterations) applying median root prior correction and were converted to standardized uptake value (SUV) images. Quantitation was accomplished using an ROI (region of interest) technique and expressed as SUVmean.
The radiolabelling with Ga-68 was done as described before. […] Quantitation was accomplished using an ROI (region of interest) technique and expressed as SUVmean. […]

integrin αvβ3 = integrin αvβ3 (Homo sapiens, UniProt P05106+P06756); settings: bicyclic peptide formed with TBMB; as described in UK provisional application P2122; read-out: Ki of αvβ3 binder; cited from earlier work
human CAIX = human CAIX (Homo sapiens, UniProt Q16790); settings: bicyclic peptide formed with TBMB; as described in UK provisional application P2120; read-out: Kd of CAIX binder; cited from earlier work
MT1-MMP hemopexin domain = MT1-MMP hemopexin domain (Homo sapiens, UniProt P50281); settings: bicyclic peptide formed with TBMB; as described in WO 2016/067035; read-out: Kd of MT1-MMP binder; cited from earlier work

integrin αvβ3, sequence (P06756 31-889 limits assumed): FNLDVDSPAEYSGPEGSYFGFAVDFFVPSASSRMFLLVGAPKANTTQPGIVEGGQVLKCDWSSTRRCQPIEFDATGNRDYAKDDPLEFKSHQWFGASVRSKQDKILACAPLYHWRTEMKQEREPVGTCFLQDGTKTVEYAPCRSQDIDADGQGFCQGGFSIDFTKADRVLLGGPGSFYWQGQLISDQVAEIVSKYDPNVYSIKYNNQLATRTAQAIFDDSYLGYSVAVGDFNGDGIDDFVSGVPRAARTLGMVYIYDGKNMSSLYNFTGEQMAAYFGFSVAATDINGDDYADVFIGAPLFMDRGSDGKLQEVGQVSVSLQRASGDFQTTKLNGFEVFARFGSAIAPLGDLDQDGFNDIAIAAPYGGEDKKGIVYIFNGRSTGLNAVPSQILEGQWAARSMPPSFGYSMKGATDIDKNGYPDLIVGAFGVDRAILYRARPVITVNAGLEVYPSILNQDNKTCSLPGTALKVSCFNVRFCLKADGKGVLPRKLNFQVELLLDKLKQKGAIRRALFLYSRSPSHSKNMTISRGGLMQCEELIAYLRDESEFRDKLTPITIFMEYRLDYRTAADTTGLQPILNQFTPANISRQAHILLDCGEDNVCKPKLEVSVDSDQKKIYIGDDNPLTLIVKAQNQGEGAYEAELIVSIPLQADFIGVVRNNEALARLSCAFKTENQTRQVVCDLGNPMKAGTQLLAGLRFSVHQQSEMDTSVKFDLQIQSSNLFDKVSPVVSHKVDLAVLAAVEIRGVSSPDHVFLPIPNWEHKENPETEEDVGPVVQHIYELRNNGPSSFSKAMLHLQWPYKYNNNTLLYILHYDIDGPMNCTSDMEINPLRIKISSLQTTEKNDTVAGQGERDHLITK
integrin αvβ3, sequence (P06756 891-1048 partner limits assumed): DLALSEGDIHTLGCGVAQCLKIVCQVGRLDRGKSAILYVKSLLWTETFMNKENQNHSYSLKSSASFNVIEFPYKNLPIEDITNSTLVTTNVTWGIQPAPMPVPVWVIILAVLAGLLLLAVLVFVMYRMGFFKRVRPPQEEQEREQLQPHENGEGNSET
integrin αvβ3, sequence (P05106 27-788): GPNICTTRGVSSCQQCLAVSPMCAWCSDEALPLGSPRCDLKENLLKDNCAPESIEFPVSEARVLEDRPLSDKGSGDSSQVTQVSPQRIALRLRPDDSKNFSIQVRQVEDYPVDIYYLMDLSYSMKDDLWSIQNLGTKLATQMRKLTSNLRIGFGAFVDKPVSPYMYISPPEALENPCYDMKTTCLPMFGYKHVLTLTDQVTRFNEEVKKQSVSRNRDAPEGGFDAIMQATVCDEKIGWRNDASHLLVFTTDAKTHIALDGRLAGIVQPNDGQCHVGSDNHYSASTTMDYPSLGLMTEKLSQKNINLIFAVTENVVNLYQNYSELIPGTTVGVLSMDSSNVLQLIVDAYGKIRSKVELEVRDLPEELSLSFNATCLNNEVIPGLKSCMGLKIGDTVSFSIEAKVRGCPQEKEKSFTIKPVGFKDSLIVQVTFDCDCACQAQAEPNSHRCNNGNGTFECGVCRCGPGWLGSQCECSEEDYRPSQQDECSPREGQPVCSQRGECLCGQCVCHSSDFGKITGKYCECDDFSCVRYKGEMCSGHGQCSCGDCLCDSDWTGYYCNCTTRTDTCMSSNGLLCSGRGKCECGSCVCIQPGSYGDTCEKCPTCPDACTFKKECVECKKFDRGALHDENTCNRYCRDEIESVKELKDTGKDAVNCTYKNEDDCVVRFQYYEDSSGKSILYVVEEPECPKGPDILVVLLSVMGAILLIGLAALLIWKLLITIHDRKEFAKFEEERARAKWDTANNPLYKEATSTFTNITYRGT

CC(C)[C@H](NC(=O)[C@@H](CC(=O)O)NC(=O)[C@H](Cc1c[nH]cn1)NC(=O)CN(C)C(=O)CN(C)C(=O)CN(C)C(=O)CN(C)C(=O)CN(C)C(=O)CN(C)C(=O)CN(C)C(=O)CN(C)C(=O)CN(C)C(=O)CN(C)C(=O)CCNC(=O)CN1CCN(CC(=O)O)CCN(CC(=O)O)CCN(CC(=O)O)CC1)C(=O)N1CCC[C@H]1C(=O)N[C@H]1CSCc2cc3cc(c2)CSC[C@H](NC(=O)[C@H](Cc2cccc4ccccc24)NC(=O)[C@H](Cc2ccccc2)NC(=O)C(C)(C)NC(=O)CNC(=O)[C@H](Cc2cccc4ccccc24)NC(=O)C(C)(C)NC1=O)C(=O)N1CCC[C@H]1C(=O)N[C@@H](C(C)(C)C)C(=O)N[C@@H](CC(N)=O)C(=O)N[C@@H](CCCCNC(=N)N)C(=O)N1CCC[C@H]1C(=O)N[C@H](CC(=O)O)C(=O)N[C@H](C(N)=O)CSC3 [I-15] ({DOTA-βAla}-[Sar][Sar][Sar][Sar][Sar][Sar][Sar][Sar][Sar][Sar]H[dD]VPC[Aib][1Nal]G[Aib]F[1Nal]CP[Tle]N[hArg]P[dD]C-NH2; linker 15-22-29 via TBMB)
liver uptake in PET imaging (xenograft tumor): clearly reduced liver uptake | tumor signal in PET imaging (xenograft tumor): extremely high

Ac-CIL(HArg)PNCDLDGRCA-Sar6-(D-K) [compound 5, "peptide 5"]
Ki (integrin αvβ3): 15 nM

βA1a-Sar10-A-CTECWVDGWVPC [compound 3, "peptide 3"]
Kd (human CAIX): 10 nM

βAla-Sar10-A-C(D-Ala)NE(1Nal)(D-Ala)CEDFYD(tBuGLy)C ([βAla][Sar][Sar][Sar][Sar][Sar][Sar][Sar][Sar][Sar][Sar]AC[dA]NE[1Nal][dA]CEDFYD[Tle]C; linker 13-19-26 via TBMB) [17-69-07-N241, "peptide 1 (17-69-07-N241)"]
Kd (MT1-MMP hemopexin domain): 1.2 nM

Reference: patent US12552837B2, “Bicyclic peptide ligands with detectable moieties and uses thereof” (BicycleRD Limited, priority 2017, dated 2026)
